From publication PMC8600398 come the findings set out here.

Series [1] relates to 6His-CRP (cAMP receptor protein) (Escherichia coli (K-12 MG1655?)). The series can be described thus: EMSA. The conditions noted are these: 10 mM Tris-HCl pH 7.5, 50 mM NaCl, 5 mM MgSO4, 1 mM DTT, 1 mg/ml BSA, 200 uM cAMP, 10% glycerol, 12 ug/ml poly(dI-dC), 5 nM DNA, 37 C 15 min; 5% PAGE 0.25X TBE ….
In series [2] the target is T1, 6His-CRP (cAMP receptor protein) (Escherichia coli (K-12 MG1655?)) (UniProt P0ACJ8).
T1 sequence: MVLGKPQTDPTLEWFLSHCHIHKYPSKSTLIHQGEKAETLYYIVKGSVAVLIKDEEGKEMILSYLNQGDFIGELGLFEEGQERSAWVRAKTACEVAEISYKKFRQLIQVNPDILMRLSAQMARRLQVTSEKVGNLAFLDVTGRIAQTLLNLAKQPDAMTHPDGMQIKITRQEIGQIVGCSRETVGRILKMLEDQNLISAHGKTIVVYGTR
The series can be described thus: EMSA. The conditions noted are these: 10 mM Tris-HCl pH 7.5, 50 mM NaCl, 5 mM MgSO4, 1 mM DTT, 1 mg/ml BSA, 200 uM cAMP, 10% glycerol, 12 ug/ml poly(dI-dC), 5 nM DNA, 37 C 15 min; 5% PAGE 0.25X TBE ….

Take ytfK promoter region -515/+3: the Kd in series [1] was 0.025 µM.

Take “GCCTACCGCATCCGCTTGCGTATCGACGGCGTATTGCATCCTTTACCGGATGTTTCACCGGATGCCGGAGTCGCATTAACCGCCAGATTAAAAGTGCTGGGAAACCTGG (double strand)”: the binding entry in series [2] is “no binding”.
